Article PMC10294715, “Single-cell RNA-seq uncovers dynamic processes orchestrated by RNA-binding protein DDX43 in chromatin remodeling during spermiogenesis”

Target: DDX43-KI (Mus musculus, UniProt D3Z6P9 1-646, E395Q)
Assay: EMSA; EMSA: 10 nM biotin-RNA, 50 mM Tris-HCl pH 7.5, 100 mM KCl, 2.5% glycerol, 0.05% NP-40, 4 mM EDTA, 1 mM DTT, RiboLock 2 U, 37 C 30 min; 8% native TBE PAGE at 4 C; G4 folded in 50 mM Tris-HCl pH 7.5, 150 mM KCl, 0.1 mM EDTA
Settings: protein: recombinant; tags: His tag (Ni-NTA, pET28a); label: 3' biotin; single strand

Chain of DDX43-KI (D3Z6P9 entry or part of it E395Q): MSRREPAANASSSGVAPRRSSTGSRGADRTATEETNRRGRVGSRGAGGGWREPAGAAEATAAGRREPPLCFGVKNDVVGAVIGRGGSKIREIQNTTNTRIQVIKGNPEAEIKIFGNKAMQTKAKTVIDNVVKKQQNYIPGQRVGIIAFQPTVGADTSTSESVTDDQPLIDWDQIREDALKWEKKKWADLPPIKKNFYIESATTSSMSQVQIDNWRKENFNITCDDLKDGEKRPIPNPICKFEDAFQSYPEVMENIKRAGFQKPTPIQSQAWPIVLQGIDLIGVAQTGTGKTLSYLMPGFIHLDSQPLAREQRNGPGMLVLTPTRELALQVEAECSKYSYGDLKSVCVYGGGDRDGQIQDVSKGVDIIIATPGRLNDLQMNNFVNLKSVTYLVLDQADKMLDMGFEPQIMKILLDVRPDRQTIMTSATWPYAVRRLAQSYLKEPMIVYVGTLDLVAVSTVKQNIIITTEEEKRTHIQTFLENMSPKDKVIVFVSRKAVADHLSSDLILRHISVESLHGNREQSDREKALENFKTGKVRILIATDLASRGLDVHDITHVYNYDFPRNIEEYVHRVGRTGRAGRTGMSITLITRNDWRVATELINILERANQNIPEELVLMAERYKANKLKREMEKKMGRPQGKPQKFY

ACCGCUGCCGUCGCUCCG (ssRNA) [ssRNA]
binding result: no binding
